Source: US20260199463A1 (published 2026)
One block for each binder: values may come before it.

B2: NEC_S_11 (VHH)
VHH: EVQLLESGGGLVQPGGSLRLSCAASGLTSSGYAMGWYRQAPGKERELVSSISSSGGLTHYADSVKGRFTISRDNSKNTLYLQMNSLKPEDTAVYYCDADIAYTGADYWGQGTQVTVSS
Kd (huNec4): 302 nM
Kd (msNec4): 38 nM

B3: NEC_S_31 (VHH)
VHH: EVQLLESGGGLVQPGGSLRLSCAASGFTYSSYAMGWYRQAPGKERELVSSISGSGGSTRYADSVKGRFTISRDNSKNTLYLQMNSLKPEDTAVYYCAVAIGVGDYWGQGTQVTVSS
Kd (huNec4): 84 nM
Kd (msNec4): 10 nM

B5: NEC_S_55 (VHH)
VHH: EVQLLESGGGLVQPGGSLRLSCAASGFTLSSYAMGWYRQAPGKERELVSSISGSGGSTRYADSVKGRFTISRDNSKNTLYLQMNSLKPEDTAVYYCAAYIGGDYLGQGTQVTVSS
Kd (huNec4): 81 nM
Kd (msNec4): 28 nM

B6: NEC_M_8 (VHH)
VHH: EVQLLESGGGLVQPGGSLRLSCAASGFTFSSYAMGWYRQAPGKEREFVSSISGSGGLTRYADSVKGRFTISRDNSKNTLYLQMNSLKPEDTAVYYCAVTTGYQGGVYDYWGQGTQVTVSS
Kd (huNec4): 122 nM
Kd (msNec4): 47 nM

Binders with a lower Kd (huNec4), results first:

Kd (huNec4): 33 nM
Kd (msNec4): 27 nM
B1: NEC_M_44 (VHH)
VHH: EVQLLESGGGLVQPGGSLRLSCAASGRTLSSYAMGWYRQAPGKERELVSSISGSGGSTRYADSVKGRFTISRDNSKNTLYLQMNSLKPEDTAVYYCAVYILELAPGAEYWGQGTQVTVSS

Kd (huNec4): 28 nM
Kd (msNec4): 8060 nM
B8: NEC_M_5 (VHH)
VHH: EVQLLESGGGLVQPGGSLRLSCAASGLSFSSYSMGWYRQAPGKEREFVSAISGSSGSTNYADSVKGRFTISRDNSKNTLYLQMNSLKPEDTAVYYCAAEHRVTTSGVFYDYWGQGTQVTVSS

Kd (huNec4): 19 nM
Kd (msNec4): 14 nM
B7: NEC_M_46 (VHH)
VHH: EVQLLESGGGLVQPGGSLRLSCAASGYTFSDYAMGWYRQAPGKERELVSSISGSGGSTRYADSVKGRFTISRDNSKNTLYLQMNSLKPEDTAVYYCAAVIRQPSTGFYEYWGQGTQVTVSS

Kd (huNec4): 10 nM
Kd (msNec4): 11 nM
B4: NEC_M_17 (VHH)
VHH: EVQLLESGGGLVQPGGSLRLSCAASGFTYSGYAMGWYRQAPGKERELVSSISGSGTLTSYADSVKGRFTISRDNSKNTLYLQMNSLKPEDTAVYYCDVDIPVGDATTVGDYWGQGTQVTVSS
